Laboratory results as given in patent US20040229366A1 (University of California, published 2004).

What was measured:
[1] = molecular target: T1, bait vector (empty pBI-880, GAL4 (1-147) alone) (UniProt P04386 1-147); experiment: yeast two-hybrid, K-box prey with empty bait
T1 construct: range 1-147; Negative control: bait vector without insert; also called empty bait
Description: Previous studies have shown that the MADS-domain and I regions may be important for homodimer formation by AG and by AP1 (Krizek and Meyerowitz, 1996; Mizukami et al., 1996; Riechmann et al., 1996) and that the I region and K-domain are needed for the formation of AP3/PI heterodimers (Krizek and Meyerowitz, Proc. Natl. Acad. Sci. USA 93, 4063-4070 (1996); Riechmann et al., Proc. Natl. Acad. Sci. USA 93, 4793-4798 (1996)). In addition, the K-domain of AG is sufficient to promote interactions with SEP1, SEP2, SEP3 and AGL6 in yeast (Fan et al., Plant J. 11, 999-1010 (1997)). Since many of the CAL- and AP1-interacting clones isolated as part of our study lacked the MADS-domain and I regions, we tested if the K-domain itself was sufficient to promote the observed interactions. First, we subcloned the K-box regions of SEP3, SOC1, SVP and AGL24 into the prey vector, and tested their ability to activate the reporter using either the empty bait or the cruciferin gene cloned into the bait plasmid. […] However, other protein domains appear to enhance these interactions since the level of reporter gene activation is higher when larger constructs are used.

[2] = molecular target: T2, CAL bait (GAL4 (1-147) fused to the intact CAL coding region in pBI-880) (Arabidopsis thaliana); experiment: yeast two-hybrid with CAL bait
T2 construct: range 1-147; also called CAULIFLOWER; full-length CAL cDNA as bait
Description: To confirm the specificity of these interactions, the longest clone of each class was transformed back into yeast with the AP1 bait, the bait vector, and an inert control bait, cruciferin. The strains containing the AP1 bait tested positive for both β-Gal activity and HIS prototrophy. The strains containing the bait vector or the cruciferin bait were negative in both assays. We then tested if the three new AP1-interacting clones could also interact with CAL, since they had not been isolated in the CAL library screen. However, AGL27, the RNA binding protein, and the novel protein were unable to interact with CAL in yeast.

[3] = molecular target: T1, bait vector (empty pBI-880, GAL4 …); experiment: yeast two-hybrid retest, B-Gal and HIS prototrophy
Description: To confirm the specificity of the observed interactions, the longest and shortest clone of each class was transformed back into a yeast strain that contained either the CAL bait, the bait vector, or an inert control bait, cruciferin. The strains containing the CAL bait tested positive for both B-Gal activity and HIS prototrophy. The strains containing the bait vector or the cruciferin bait were negative in both assays, as they were not able to grow on plates lacking histidine and the yeast colonies were completely white in the B-Gal assay.

| Binder | binding result [1] | further results |
| --- | --- | --- |
| SEP3K (K-box region of SEP3 in prey vector pBI771) (other, also called SEP3 K-box; K-box prey construct; not shown: fusion partner encoded by prey vector pBI771) SQQEYLKLKERYDALQRTQRNLLGEDLGPLSTKELESLERQLDSSLKQIRALRTQFMLDQLNDLQSK | no binding | – |
| AGL24K (K-box region of AGL24 in prey vector pBI771) (other, not shown: small tags and cut ends, also called AGL24 K-box; K-box prey construct) MLENCNLSRLSKEVEDKTKQLRKLRGEDLDGLNLEELQRLEKLLESGLSRVSEKKGECVMSQIFSLE | no binding | – |
| SOC1K (K-box region of SOC1 in prey vector pBI771) (other, not shown: small tags and cut ends, also called SOC1 K-box; K-box prey construct) MKYEAANMMKKIEQLEASKRKLLGEGIGTCSIEELQQIEQQLEKSVKCIRARKTQVFKEQIEQLKQKE | no binding | – |
| AGL27 clone isolated in the AP1 two-hybrid screen (one clone) (other, also called new MADS box gene designated AGL27; not shown: fusion partner encoded by prey vector pBI771) MGRRKIEIKRIENKSSRQVTFSKRRNGLIDKARQLSILCESSVAVVVVSASGKLYDSSSGDDISKIIDRYEIQHADELRALDLEEKIQNYLPHKELLETVQSKLEEPNVDNVSVDSLISLEEQLETALSVSRARKAELMMEYIESLKEKEKLLREENQVLASQLSEKKGMSHR | – | binding result [2]: no binding |
| shortest AGL24 clone from the CAL two-hybrid screen (other, Lacks the MADS domain and I region; also called shortest clone of each class; shortest clones isolated in the screen; not shown: fusion partner encoded by prey vector pBI771) EVEDKTKQLRKLRGEDLDGLNLEELQRLEKLLESGLSRVSEKKGECVMSQIFSLEKRGSELVDENKRLRDKLETLERAKLTTLKEALETESVTTNVSSYDSGTPLEDDSDTSLKLGLPSWE | – | binding result [3]: no binding |
| SVPK (K-box region of SVP in prey vector pBI771) (other, not shown: small tags and cut ends, also called SVP K-box; K-box prey construct) MSDHARMSKEIADKSHRLRQMRGEELQGLDIEELQQLEKALETGLTRVIETKSDKIMSEISELQKKG | no binding | – |
